Holding throughout (test): EMSA
(In EMSA bound probe runs differently from free probe, usually more slowly.)

In series [1] the target is T1, AtGAPC1 (Arabidopsis thaliana, UniProt P25858 1-338).
A further series concerns the target AtGAPC2 (Arabidopsis thaliana, UniProt Q9FX54 1-338).
Another series has as its target GAPDH from rabbit muscle (rabbit, UniProt P46406 1-333).
For series [2], the target named is T1, AtGAPC1. This is another data set of the same source.

Like-named read-outs stand apart in the source and are kept apart here.

T1 sequence (P25858 whole entry): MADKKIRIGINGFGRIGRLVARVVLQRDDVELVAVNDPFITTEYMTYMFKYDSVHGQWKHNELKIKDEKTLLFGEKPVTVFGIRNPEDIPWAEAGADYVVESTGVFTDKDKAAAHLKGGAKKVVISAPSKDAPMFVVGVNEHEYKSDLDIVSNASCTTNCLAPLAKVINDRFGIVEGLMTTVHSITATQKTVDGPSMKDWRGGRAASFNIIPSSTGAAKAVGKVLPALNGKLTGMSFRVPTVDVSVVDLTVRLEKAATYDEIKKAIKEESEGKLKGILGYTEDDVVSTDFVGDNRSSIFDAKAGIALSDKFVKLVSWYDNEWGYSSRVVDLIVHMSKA
AtGAPC2, sequence (Q9FX54 whole entry): as the sequence (P25858 whole entry) above, with N61H, I65V, E68D, A92G, Y98F, A227S, L274M counted along it
GAPDH from rabbit muscle, sequence (P46406 whole entry): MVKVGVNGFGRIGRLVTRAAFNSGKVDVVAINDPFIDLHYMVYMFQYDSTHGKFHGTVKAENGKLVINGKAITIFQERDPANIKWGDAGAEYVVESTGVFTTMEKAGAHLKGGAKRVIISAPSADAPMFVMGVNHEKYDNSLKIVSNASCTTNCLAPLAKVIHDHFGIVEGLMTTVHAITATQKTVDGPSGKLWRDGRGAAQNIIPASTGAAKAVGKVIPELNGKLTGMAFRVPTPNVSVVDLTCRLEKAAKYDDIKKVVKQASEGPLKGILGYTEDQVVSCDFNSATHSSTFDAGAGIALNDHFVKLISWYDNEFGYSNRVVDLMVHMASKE

For AUAUAUUCUCCGGAGAA (ssRNA) [M1-RNA (consensus)], in the series with AtGAPC1 [1], the binding result was “binds”.

As for UUAGCGUUUUAAUGUUGAGUGAGUAAGUUAAGGGGUU (ssRNA) [Random RNA (AT5G16470 5'-UTR, mutated M2)], the binding result with AtGAPC1 [1] is listed as “no binding”.

Consider AUAUAUGAGAUUAGGGUUU (ssRNA) [M2-RNA (consensus)], for which the binding result with AtGAPC1 [1] was “binds”.

Take ACCAGAUUUUUUUCGCCGGAGUUUGUUUUGAUCCA (ssRNA) [SAP3 M1]: the binding result in the series with AtGAPC2, with GAPDH from rabbit muscle and with AtGAPC1 [2] was “binds” in each case.
